How the values were obtained:
[1] = test system: pro-MSP-R483E (cleavage-site mutant of pro-MSP)
[2] = test system: pro-MSP (single-chain recombinant human pro-macrophage-stimulating protein, C672A)

Chain of extracellular domain of human recombinant hepsin (chain, as listed by the source): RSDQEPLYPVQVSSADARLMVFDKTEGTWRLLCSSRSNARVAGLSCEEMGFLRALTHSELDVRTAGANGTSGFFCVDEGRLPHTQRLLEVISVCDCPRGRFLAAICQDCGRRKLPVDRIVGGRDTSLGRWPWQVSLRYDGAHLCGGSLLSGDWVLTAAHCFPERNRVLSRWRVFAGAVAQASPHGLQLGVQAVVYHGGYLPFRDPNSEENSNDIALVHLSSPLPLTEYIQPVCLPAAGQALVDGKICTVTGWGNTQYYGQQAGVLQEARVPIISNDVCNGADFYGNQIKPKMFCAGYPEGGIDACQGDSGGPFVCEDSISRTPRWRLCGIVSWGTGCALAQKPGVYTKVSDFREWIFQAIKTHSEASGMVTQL
Chain of pro-MSP-R483E (cleavage-site mutant of pro-MSP) (chain, as listed by the source R483E): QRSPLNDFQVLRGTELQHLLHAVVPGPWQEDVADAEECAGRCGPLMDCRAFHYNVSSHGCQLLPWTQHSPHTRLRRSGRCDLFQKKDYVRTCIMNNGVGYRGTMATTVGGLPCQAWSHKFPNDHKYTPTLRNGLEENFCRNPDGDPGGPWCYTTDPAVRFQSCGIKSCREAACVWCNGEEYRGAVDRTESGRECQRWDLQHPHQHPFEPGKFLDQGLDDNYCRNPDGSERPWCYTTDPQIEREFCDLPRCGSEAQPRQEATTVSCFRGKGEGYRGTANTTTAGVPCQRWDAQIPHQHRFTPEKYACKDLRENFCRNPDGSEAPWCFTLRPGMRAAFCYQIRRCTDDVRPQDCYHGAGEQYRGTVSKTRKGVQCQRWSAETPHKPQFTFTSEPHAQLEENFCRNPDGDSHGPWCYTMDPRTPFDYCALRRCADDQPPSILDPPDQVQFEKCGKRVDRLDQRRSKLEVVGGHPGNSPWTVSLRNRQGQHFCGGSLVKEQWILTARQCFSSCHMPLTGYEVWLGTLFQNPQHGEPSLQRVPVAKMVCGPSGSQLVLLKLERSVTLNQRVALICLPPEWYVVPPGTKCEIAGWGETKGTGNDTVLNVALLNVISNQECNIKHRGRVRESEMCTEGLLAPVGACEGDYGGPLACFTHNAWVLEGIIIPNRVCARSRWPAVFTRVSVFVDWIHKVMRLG

extracellular domain of human recombinant hepsin
proteolytic processing by hepsin, SDS-PAGE [1]: Hepsin did not cleave this mutant pro-MSP despite prolonged incubation (24 hours) | proteolytic activation of pro-MSP, gel-mobility shift on reducing SDS-PAGE (hepsin 1.25-10 nM, 37° C.) [2]: Hepsin activated pro-MSP in a dose-dependent and time dependent manner
